According to US20250340649A1 (RUTGERS THE STATE UNIVERSITY OF NEW JERSEY, published 2025):
Read-outs that look alike come from different tables or passages of the source.

How the values were obtained:
[1] = target: T1, CD16a on NK92 (CD16+) cells (human, UniProt P08637 17-254); assay: flow cytometry, NK92 cells (CD16a+)
T1 construct: whole, on cells; also called NK92 cells (CD16a+); haNK92 cells (CD16a+)

[2] = target: T2, CD16b on neutrophils (human, UniProt O75015 17-200); assay: flow cytometry, neutrophils (CD16b+)
T2 construct: whole, on cells; also called neutrophils (CD16b+)
T2 sequence (O75015 17-200): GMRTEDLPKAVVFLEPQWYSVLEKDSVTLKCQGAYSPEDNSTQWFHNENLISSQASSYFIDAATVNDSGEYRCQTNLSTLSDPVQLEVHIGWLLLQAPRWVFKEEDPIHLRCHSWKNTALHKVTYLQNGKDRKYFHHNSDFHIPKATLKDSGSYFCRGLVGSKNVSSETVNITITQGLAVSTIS

[3] = target: T2, CD16b on neutrophils; assay: flow cytometry, neutrophils (CD16b+); value of the drawn table
[4] = target: T2, CD16b on neutrophils; assay: flow cytometry, neutrophils (CD16b+); value at the PE-H+ gate inside the histogram
[5] = target: HER2 on the surface of HER2+ cancer cells (BT474, SKOV-3) (human) (UniProt P04626); assay: flow cytometry on BT-474 cells (HER2+)
[6] = target: HER2 on the surface of HER2+ cancer cells (BT474, SKOV-3) (human) (UniProt P04626); assay: flow cytometry on SKOV-3 cells (HER2+)
[7] = target: T2, CD16b on neutrophils; assay: flow cytometry, neutrophils (CD16b+); value at the PE-H- gate inside the histogram
[8] = target: T2, CD16b on neutrophils; assay: flow cytometry on neutrophils (CD16b+)
Description: For flow cytometry, haNK92 cells (CD16a+) and Neutrophils (CD16b⁺) were used. […] The human Neutrophil cells were purchased from HemaCare and cultured according to the manufacturer's protocol. First, both cell lines were harvested and washed once using DPBS supplemented with 2% FBS (2% DPBS-FBS). For each sample, 0.5×10⁶ cells were stained with antibody on ice for 60 min. In this experiment, 3G8 monoclonal antibody was used as a positive control. This antibody binds to both CD16a and CD16b. Following washing three times, the secondary antibody, anti-Histag antibody FITC labeled, was added. After washing, the samples were run on Cytoflex using FL2 channel.
In this experiment, NK92 cells (CD16a⁺), neutrophils (CD16b⁺), and B cells (CD32b⁺) were used as cell controls. 3G8 (anti-CD16a/b) and AT10 (anti-CD32a/b) mAbs were used as antibody controls.

[9] = target: T3, biotinylated CD32b (UniProt P31994 46-217, biotinylated); assay: ELISA, biotinylated antigen on streptavidin plate
T3 construct: also called CD32b antigen
T3 sequence (looked up): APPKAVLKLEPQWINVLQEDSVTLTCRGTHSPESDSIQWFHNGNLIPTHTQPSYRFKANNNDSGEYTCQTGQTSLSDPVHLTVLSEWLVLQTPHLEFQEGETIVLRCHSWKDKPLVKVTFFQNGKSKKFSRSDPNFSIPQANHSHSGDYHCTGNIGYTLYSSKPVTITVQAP
Description: The purified VHHs were subjected to functional analysis using ELISA and flow cytometry. For ELISA, 50 μL of biotinylated CD16a, CD16b-NA1, CD16b-NA2, and CD32b were added to the streptavidin-coated plate and incubated for 45 min at RT. Following washing, the 100 μL of 100 nM purified VHHs were added and incubated at RT for 1 h. Next, 100 μL anti-HA tag HRP conjugated secondary antibody was added. Finally, the substrate was added for color development, and the plate was read using OD of 450 nm.
CD32b and skim milk were also used as antigen controls. 3G8 and eBioCB16, which are anti-CD16a/b mAbs were used as antibody controls. […] CD32b is a receptor that is expressed on B cells and responsible for inhibiting B cell activation. One of the disadvantages of mAb-based therapies is the binding of their Fc region to CD32b leading to the diminished activity of humoral immunity.

[10] = target: T4, Biotinylated Human Fc gamma RIIIA/CD16a (F176) Protein, Avitag, His Tag (Acrobiosystems CDA-H82E8) (human, UniProt P08637 17-208, biotinylated (Avitag)); assay: BLI (Octet), biotinylated CD16a on streptavidin sensor, VHH 1.875-60 nM
T4 construct: also called biotinylated CD16a; CD16a antigen
T4 sequence (P08637 17-208 limits assumed): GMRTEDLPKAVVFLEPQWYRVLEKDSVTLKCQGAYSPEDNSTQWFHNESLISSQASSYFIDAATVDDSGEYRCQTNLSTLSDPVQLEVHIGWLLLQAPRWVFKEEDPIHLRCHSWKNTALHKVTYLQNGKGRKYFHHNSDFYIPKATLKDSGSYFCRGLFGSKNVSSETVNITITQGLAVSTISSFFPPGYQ
Description: (§1) An Octet® Streptavidin (SA) Biosensor was soaked for at least 10 min in DPBS supplemented with 0.1% Casein, biotinylated CD16a, CD16b-NA1, CD16b-NA2, and HER2 antigens were loaded onto the streptavidin (SA) biosensor until 1 nm shift was reached. Next, the sensor was dipped into the washing buffer (DPBS+0.05% Tween 20+0.1% Casein) for 2 min to reach the baseline. […] Then, in the dissociation step, sensors were dipped into the washing buffer for 5 min to acquire data (Table 5). The data were then analyzed using Octet Data Analysis HT 11.1 software. The sensorgrams were subtracted from the reference and fitted into 1:1 binding model for data analysis. Finally, the affinity and kinetics were analyzed using “Association and Dissociation”.

[11] = target: T5, Biotinylated Human Fc gamma RIIIB/CD16b (NA1) Protein, His, Avitag (Acrobiosystems CDB-H82E4) (human, UniProt O75015 17-200, biotinylated (Avitag)); assay: BLI (Octet), biotinylated CD16b-NA1 on streptavidin sensor, VHH 1.875-60 nM
T5 construct: NA1 allele; also called CD16b-NAI
T5 sequence (O75015 other isoform, or with tags, fused parts or gaps limits assumed): as the sequence (O75015 17-200) above, with S20R, N66D, I90V counted along it
Description: as §1

[12] = target: T6, Biotinylated Human Her2/ErbB2 Protein, His, Avitag (AcroBiosystem HE2-H82E2) (human, UniProt P04626 23-652, biotinylated (Avitag)); assay: BLI (Octet), biotinylated HER2 on streptavidin sensor
T6 construct: Bought protein; Loaded on streptavidin sensors for BLI; also called biotinylated HER2; HER2 antigen

[13] = target: T7, HER2 on the surface of HER2+ cancer cells (BT474, SKOV-3) (human, UniProt P04626 23-1255); assay: flow cytometry on BT-474 cells (HER2+), 100 nM binding sites
T7 construct: whole, on cells; also called human epidermal growth factor receptor 2
Description: (§2) OVASC-1 is an ascites-derived epithelial ovarian cancer cells obtained from a patient with advanced metastatic disease (11, 12). The expressed VHHs were then incubated with HER2⁺ (BT474, JIMT-1, and SKOV-3) and HER2⁻ (MDA-MB-231) cancer cell lines. Approximately 10⁶ cells were counted and washed using DPBS-1% FBS. […] After washing, FITC-conjugated anti-Human IgG or anti-Histag antibody were added and incubated on ice for 60 min. Cells were washed three times and then analyzed using Beckman-Coulter Gallios flow cytometer at Rutgers Flow cytometry core facility.
(§3) In the next step, the ability of the VHHs to recognize and bind to HER2 on the surface of HER2+ cancer cells was evaluated. […] MDA-MB-231 and OVASC-1 (HER2⁻) cancer cells were used as negative controls.

[14] = target: T7, HER2 on the surface of HER2+ cancer …; assay: flow cytometry on SKOV-3 cells (HER2+), 100 nM binding sites
Description: as §2, §3

[15] = target: T8, HER1 (human, UniProt P00533 25-645); assay: ELISA, periplasmic extract on coated antigen, anti-HA-HRP
T8 construct: The text says only 'HER1'; also called Recombinant human EGFR protein (Fc Chimera), Abcam ab155726; Fc part of the bought chimera not given
Source text: (§4) FIGS. 4A-4B. FIG. 4A) PBMCs were isolated using Ficoll-Paque method. Then, the RNAs were extracted, cDNA library was generated, genes amplified, and then cloned into pMECS-GG phagemids. The phagemids were used in phage display and the screened candidates were used to infect TG1 bacteria. Colonies were selected, grown, lysed, and the lysates removed. FIG. 4B) The lysates were then used in ELISA to screen for VHHs with the highest affinity to HER2 and with negligible binding to HER1, HER3, and HER4. Bovine serum albumin (BSA) and skim milk were used as controls.
(§5) The next day, each well was washed three times with washing buffer (DPBS+0.1% Tween 20) and then incubated with blocking buffer (2% skimmed milk) for 2 h at RT to block the free binding sites. Next, blocking buffer was replaced with 100 μL of periplasmic extract from above and incubated for 1 h at RT while shaking at 700 rpm. Each well was washed six times with washing buffer (DPBS+0.1% Tween 20) followed by addition of 100 μL HRP Anti-HA tag antibody (1:10000 dilution) and incubation for 1 h at RT while shaking at 700 rpm. Each well was washed again six times, followed by addition of 50 μL 1-Step™ Turbo TMB-ELISA substrate solution at incubation at RT for 15 min (without shaking and at dark). The reaction was stopped by adding 50 μL of stop solution ([…] sulfuric acid) and the plate was read at 450 nm using 630 nm as a reference (450/630 nm).

[16] = target: T9, HER3 (human, UniProt P21860 20-643, limits assumed); assay: as above
T9 construct: also called Recombinant Human ErbB 3 protein, Abcam ab196072
Source text: as §4, §5

[17] = target: T10, Bovine serum albumin (bovine, UniProt P02769 25-607); assay: as above
T10 construct: Control antigen; also called BSA
T10 sequence (P02769 25-607 limits assumed): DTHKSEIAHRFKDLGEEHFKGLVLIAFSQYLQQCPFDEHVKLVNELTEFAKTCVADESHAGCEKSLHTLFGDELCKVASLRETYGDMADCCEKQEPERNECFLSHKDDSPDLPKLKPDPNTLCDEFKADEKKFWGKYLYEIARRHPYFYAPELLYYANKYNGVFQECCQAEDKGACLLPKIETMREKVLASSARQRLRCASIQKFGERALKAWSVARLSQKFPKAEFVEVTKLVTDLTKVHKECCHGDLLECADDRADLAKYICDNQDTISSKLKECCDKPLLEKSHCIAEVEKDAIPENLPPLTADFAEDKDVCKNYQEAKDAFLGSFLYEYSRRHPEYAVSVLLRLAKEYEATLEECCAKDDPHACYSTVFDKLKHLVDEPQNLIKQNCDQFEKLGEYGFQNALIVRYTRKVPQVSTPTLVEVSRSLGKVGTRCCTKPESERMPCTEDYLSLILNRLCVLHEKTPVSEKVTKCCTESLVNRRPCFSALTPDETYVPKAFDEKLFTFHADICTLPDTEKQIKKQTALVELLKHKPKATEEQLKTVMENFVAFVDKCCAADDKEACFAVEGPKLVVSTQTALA
Source text: as §4, §5

[18] = target: T6, Biotinylated Human Her2/ErbB2 Protein, …; assay: BLI (Octet), biotinylated HER2 on streptavidin sensor, VHH 1.875-60 nM
[19] = target: T7, HER2 on the surface of HER2+ cancer …; assay: flow cytometry, SKOV-3 (HER2+) cells, tenfold dilutions 0.001-1000 nM
[20] = target: T6, Biotinylated Human Her2/ErbB2 Protein, …; assay: ELISA on HER2, tenfold dilutions 0-1000 nM; the HER2 form is not stated for this ELISA, Table 17 lists only the biotinylated HER2
[21] = target: T6, Biotinylated Human Her2/ErbB2 Protein, …; assay: BLI (Octet), biotinylated HER2 on streptavidin sensor, VHH 1.875-60 nM; remark: listed apart in the source

T1 sequence (P08637 17-254 F176V): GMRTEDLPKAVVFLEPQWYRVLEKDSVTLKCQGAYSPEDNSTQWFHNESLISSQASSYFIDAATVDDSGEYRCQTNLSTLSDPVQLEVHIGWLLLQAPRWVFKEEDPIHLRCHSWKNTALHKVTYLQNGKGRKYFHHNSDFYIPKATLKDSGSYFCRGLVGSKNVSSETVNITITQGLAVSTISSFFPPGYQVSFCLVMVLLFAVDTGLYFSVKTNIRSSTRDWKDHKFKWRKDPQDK

CD16 Monoclonal Antibody (3G8), Functional Grade, eBioscience
FITC+ [1]: 82.2% | FITC- [1]: 17.8% | MFI [1]: 88200 | MFI [2]: 18000 | PE- [2]: 38.1% | PE+ [3]: 61.1% | PE+ [4]: 61.9%

Isotype (antibody)
FITC+ (%) [5]: 0.45% | FITC- (%) [5]: 99.6% | Mean (MFI) [5]: 935 | FITC+ (%) [6]: 0.97% | FITC- (%) [6]: 99% | Mean (MFI) [6]: 915 | FITC+ [1]: 0.71% | FITC- [1]: 99.3% | MFI [1]: 25000 | MFI [2]: 867 | PE+ [2]: 4.42% | PE- [3]: 90.6% | PE- [7]: 95.6%

B1: E3 anti-CD16a VHH (VHH)
VHH: QVQLQESGGGLVQAGGSARLSCAASGRTFRLYRMGWFRQAPGKEREFVASIKMIDGSSLFGDPVKGRFTISRDNTKFMVYLQMNSLKPEDTAVYYCASVSRNTGSWDSWGQGTQVTVSSYPYDVPDYAHHHHHHHH
notes: also called E3 clone; E3 VHH
binding result [8]: no binding | binding result [9]: no binding (tested: 100 nM) | Kd [10]: 0.579 nM | koff [10]: 0.000294 s⁻¹ | kon [10]: 505000 M⁻¹ s⁻¹ | Kd [11]: 31.7 nM | koff [11]: 0.0131 s⁻¹ | kon [11]: 412000 M⁻¹ s⁻¹

B2: E5 anti-HER2 VHH (VHH)
VHH: QVQLQESGGGLVQAGGSLRLDCAASGRTLSSYVVGWFRQAPGKEREVVAAIGWSRTSTFYTDSVKGRFTISRDNTENTVYLQMNSLKPGDTAVYYCAADSSPRRWDRESDFGSWGQGTQVTVSS
notes: also called E5 clone
Kd [12]: 0.724 nM | FITC+ (%) [13]: 98.4% | FITC- (%) [13]: 1.59% | Mean (MFI) [13]: 102000 | FITC+ (%) [14]: 93.3% | FITC- (%) [14]: 6.45% | Mean (MFI) [14]: 106000 | binding result [15]: no binding (tested: extract, conc. not given) | binding result [16]: no binding (tested: extract, conc. not given) | binding result [17]: no binding (tested: extract, conc. not given) | koff [18]: 0.000702 s⁻¹ | kon [18]: 969000 M⁻¹ s⁻¹ | EC50 (read off the curve) [19]: ~1 nM | EC50 (read off the curve) [20]: ~0.3 nM

B3: A1 anti-HER2 VHH (VHH)
VHH: QVQLQESGGGLVQPGGSLRLSCAASGHTLSTYVVAWFRQAPGKERESVAAIGWSSRSPYYPDSVKGRFTISEDNTKNTVYLQMNSLKPDDTAVYYCAADSYPRRWDRESDFGSWGQGTQVTVSS
notes: Llama VHH expressed in WK6 E. coli with C-terminal c-myc and His tags; also called A1 clone
Kd [12]: 1.3 nM | FITC+ (%) [13]: 98.8% | FITC- (%) [13]: 1.23% | Mean (MFI) [13]: 97000 | FITC+ (%) [14]: 94.1% | FITC- (%) [14]: 5.78% | Mean (MFI) [14]: 101000 | binding result [15]: no binding (tested: extract, conc. not given) | binding result [16]: no binding (tested: extract, conc. not given) | binding result [17]: no binding (tested: extract, conc. not given) | Kd [21]: 1.32 nM | koff [21]: 0.000411 s⁻¹ | kon [21]: 309000 M⁻¹ s⁻¹
